This sample holds only a part of the variants without activity.
Key:
[1] = system: biotinyl-Met-oxazolone; assay: self-aminoacylation, catalytic enhancement (BMO) (fold over background); higher = more active; k-Seq, kA / k0A0; sequences stand for … in GGGAAUGGAUCCACAUCUACGAAUUC…UUCACUGCAGACUUGACGAAGCUG
In short: (§1)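 The uncatalyzed rate is the low-activity peak of a bimodal Gaussian fit, and catalytic enhancement is median kA divided by it. The kA values came from pseudo-first-order fits, with 1000 bootstraps, of per-sequence fraction reacted measured by streptavidin capture, triplicate qPCR and Illumina sequencing. Mutagenized RNA pools with a 21-nt variable region (0.43 μM) were reacted with each biotinyl-aminoacyl-oxazolone at 2–1250 μM in 50 μL HEPES/NaCl/KCl/MgCl2/CaCl2 buffer with 5% acetonitrile, pH 6.9–7.0, for 90 minutes at room temperature.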

[2] = system: biotinyl-Ile-oxazolone; assay: self-aminoacylation, catalytic enhancement (BIO) (fold over background); higher = more active; k-Seq, kA / k0A0; sequences stand for … in GGGAAUGGAUCCACAUCUACGAAUUC…UUCACUGCAGACUUGACGAAGCUG
In short: as §1

[3] = system: biotinyl-Trp-oxazolone; assay: self-aminoacylation, catalytic enhancement (BWO) (fold over background); higher = more active; k-Seq, kA / k0A0; sequences stand for … in GGGAAUGGAUCCACAUCUACGAAUUC…UUCACUGCAGACUUGACGAAGCUG
In short: as §1

[4] = system: biotinyl-Phe-oxazolone; assay: self-aminoacylation, catalytic enhancement (BFO) (fold over background); higher = more active; k-Seq, kA / k0A0; sequences stand for … in GGGAAUGGAUCCACAUCUACGAAUUC…UUCACUGCAGACUUGACGAAGCUG
In short: as §1

[5] = system: biotinyl-Leu-oxazolone; assay: self-aminoacylation, catalytic enhancement (BLO) (fold over background); higher = more active; k-Seq, kA / k0A0; sequences stand for … in GGGAAUGGAUCCACAUCUACGAAUUC…UUCACUGCAGACUUGACGAAGCUG
In short: as §1

[6] = system: biotinyl-Val-oxazolone; assay: self-aminoacylation, catalytic enhancement (BVO) (fold over background); higher = more active; k-Seq, kA / k0A0; sequences stand for … in GGGAAUGGAUCCACAUCUACGAAUUC…UUCACUGCAGACUUGACGAAGCUG
In short: as §1

Row | Sequence | self-aminoacylation [1] | self-aminoacylation [2] | self-aminoacylation [3] | self-aminoacylation [4] | self-aminoacylation [5] | self-aminoacylation [6]
1 | UGACUUCAAACAAUCGGUCUG [Fam1A.1 aminoacylation ribozyme variant] | 2.05 | 1.73 | 39.2 | 96.8 | 2.53 | 1.73
2 | CUACUUCAGACGAUCGGUCUG [Fam1A.1 aminoacylation ribozyme variant] | 1.24 | 0.727 | 0.788 | 0.484 | 0.954 | 1.01
3 | AUUACCGUGGUCAUCCAGUGA [Fam2.1 aminoacylation ribozyme variant] | 5.39 | 3.52 | 6.67 | 28.8 | 5.29 | 3.32
4 | AUUCACCUGGUUCAUCGGGUG [Fam2.2 aminoacylation ribozyme variant] | 3.08 | 2.42 | 3.62 | 15.2 | 3.19 | 3.1
5 | CCAUUUCAAACAAUCGGUCUG [Fam1A.1 aminoacylation ribozyme variant] | 1.13 | 1.03 | 5.46 | 7.75 | 1.19 | 1.04
6 | CCACACUCCAAACAAUCGGUC [Fam1B.1 aminoacylation ribozyme variant] | 0.917 | 0.982 | 6.11 | 10.9 | 1.09 | 1.31
7 | CCACACUCCAAGAAAUCGGUC [Fam1B.1 aminoacylation ribozyme variant] | 0.768 | 1.31 | 1 | 0.991 | 0.848 | 0.973
8 | AUUACCAUGGUCAUCGUGUGA [Fam2.1 aminoacylation ribozyme variant] | 4.58 | 1.9 | 5.96 | 27.8 | 4.26 | 2.2
9 | AGUACCCUAGUCAUCGAGUGA [Fam2.1 aminoacylation ribozyme variant] | 4.86 | 3.2 | 6.29 | 24.6 | 4.92 | 3.13
10 | AAGUUUGCUGUUAGUCGCAAG [Fam3.1 aminoacylation ribozyme variant] | 0.895 | 0.911 | 1.37 | 0.937 | 0.912 | 0.855
11 | AAGUUUGCUAAAAGUUGCAAG [Fam3.1 aminoacylation ribozyme variant] | 1.07 | 0.983 | 0.711 | 1.18 | 0.968 | 0.781
12 | ACUACCCUGGUCAACGAGUGA [Fam2.1 aminoacylation ribozyme variant] | 5.53 | 3.48 | 6.49 | 17 | 5.55 | 3.82
13 | AUUGACCUAGGUCUUCGGGUG [Fam2.2 aminoacylation ribozyme variant] | 4.29 | 3.85 | 4.79 | 19 | 4.19 | 3.97
14 | CCGCACUUCAAGUAAUCGGUC [Fam1B.1 aminoacylation ribozyme variant] | 1.4 | 1.3 | 14.5 | 15.6 | 1.54 | 1.37
15 | CUACUUCAAACAAGCGGUUUG [Fam1A.1 aminoacylation ribozyme variant] | 0.637 | 0.89 | 0.559 | 0.557 | 0.705 | 0.701
16 | CCACACUUGAAGCAAUCCGUC [Fam1B.1 aminoacylation ribozyme variant] | 0.993 | 1.02 | 0.76 | 0.745 | 0.905 | 1
17 | GUUACCCUGCUCAUCGAGUGA [Fam2.1 aminoacylation ribozyme variant] | 3.06 | 1.66 | 3.45 | 8.33 | 2.23 | 1.79
18 | AUUCACCUACGUCAUAGGGUG [Fam2.2 aminoacylation ribozyme variant] | 1.34 | 0.915 | 0.634 | 0.864 | 1.02 | 0.933
19 | AACUUUGCUAAUAGCCGCAAG [Fam3.1 aminoacylation ribozyme variant] | 2.28 | 2.25 | 2.14 | 2.77 | 2.23 | 1.93
20 | UAGUUUGCUAAUCGUCGCAAG [Fam3.1 aminoacylation ribozyme variant] | 1.51 | 1.62 | 1.59 | 1.65 | 1.11 | 1.31
21 | CUACUUCAAACAAUCGAUCUG [Fam1A.1 aminoacylation ribozyme variant] | 0.574 | 0.663 | 1.34 | 3.4 | 0.572 | 0.693
22 | AUUCACCUAGGUCAUCGUGUG [Fam2.2 aminoacylation ribozyme variant] | 0.951 | 0.867 | 0.654 | 2.56 | 1.07 | 0.932
23 | AUUCACCUAGGUCAAUGGGUG [Fam2.2 aminoacylation ribozyme variant] | 1.75 | 1.42 | 1.65 | 6.93 | 2.23 | 1.38
24 | AUUACCCGGGUCUUCGAGUGA [Fam2.1 aminoacylation ribozyme variant] | 7.15 | 4.5 | 8.46 | 44.4 | 8.21 | 4.57
25 | GAUACCCUGGUCAUCGAGUGA [Fam2.1 aminoacylation ribozyme variant] | 8.5 | 4.92 | 10.5 | 31.6 | 7.96 | 5.43
26 | CUACUUCAAACGAUCCGUCUG [Fam1A.1 aminoacylation ribozyme variant] | 0.958 | 0.783 | 0.755 | 0.594 | 0.787 | 0.808

Row | Sequence | self-aminoacylation [1] | self-aminoacylation [2] | self-aminoacylation [3] | self-aminoacylation [4] | self-aminoacylation [5] | self-aminoacylation [6]
27 | CGACACUUAAAGCAAUCGGUC [Fam1B.1 aminoacylation ribozyme variant] | 0.956 | 0.886 | 0.792 | 1.13 | 0.849 | 0.95
28 | ACGUUUGCUAUUAGUCGCAAG [Fam3.1 aminoacylation ribozyme variant] | 1.67 | 1.5 | 2.22 | 1.31 | 1.18 | 1.21
29 | CUACUUCAAAGAACCGGUCUG [Fam1A.1 aminoacylation ribozyme variant] | 0.715 | 0.994 | 0.734 | 0.687 | 0.847 | 0.815
30 | AAGUUUGCUGAUAAUCGCAAG [Fam3.1 aminoacylation ribozyme variant] | 0.716 | 0.707 | 0.682 | 1.05 | 0.586 | 0.754
31 | AUUCACCUAUGUCACCGGGUG [Fam2.2 aminoacylation ribozyme variant] | 3.22 | 2.34 | 3.43 | 19 | 4.89 | 2.27
32 | CCACACAUCAAGCAAUCGAUC [Fam1B.1 aminoacylation ribozyme variant] | 0.439 | 0.575 | 0.513 | 0.914 | 0.581 | 0.748
33 | AUUGCCCUGGUCAUCGAGGGA [Fam2.1 aminoacylation ribozyme variant] | 3.9 | 1.93 | 3.16 | 4.65 | 3.97 | 2.22
34 | AUUCACGUAGGUCAUCGGCUG [Fam2.2 aminoacylation ribozyme variant] | 2.35 | 2.35 | 3.17 | 6.6 | 2.91 | 3.36
35 | CUACUUCAUACAACCGGUCUG [Fam1A.1 aminoacylation ribozyme variant] | 0.621 | 0.925 | 0.415 | 0.504 | 0.751 | 0.84
36 | AUUACGCUGGUCAUCGAGUGC [Fam2.1 aminoacylation ribozyme variant] | 1.44 | 1.02 | 1.24 | 1.4 | 1.31 | 1.33
37 | CCACACUUGAAGCAAUCGGUC [Fam1B.1 aminoacylation ribozyme variant] | 0.782 | 0.836 | 0.805 | 0.778 | 0.735 | 0.926
38 | CGACUUCAAACAUUCGGUCUG [Fam1A.1 aminoacylation ribozyme variant] | 1.49 | 1.81 | 2.1 | 8.04 | 1.43 | 1.96
39 | CCGCACUUCAAGCAAUCGUUC [Fam1B.1 aminoacylation ribozyme variant] | 0.742 | 0.8 | 0.659 | 1.26 | 0.688 | 0.944
40 | AAGUUUGCUAAUGGUCGGAAG [Fam3.1 aminoacylation ribozyme variant] | 0.811 | 0.861 | 0.587 | 1.55 | 0.849 | 0.91
41 | CUACUUCAAACAGUUGGUCUG [Fam1A.1 aminoacylation ribozyme variant] | 0.538 | 0.893 | 0.595 | 0.982 | 0.79 | 0.736
42 | AAGUAUGCUAGUAGUCGCAAG [Fam3.1 aminoacylation ribozyme variant] | 1.22 | 1.26 | 1.12 | 2.22 | 0.756 | 1.35
43 | CUACUUCAAACAAUAGGUCUU [Fam1A.1 aminoacylation ribozyme variant] | 0.75 | 0.947 | 0.538 | 0.985 | 0.827 | 0.828
44 | UUUACCCUGGUCAUCGAGAGA [Fam2.1 aminoacylation ribozyme variant] | 1.61 | 1.28 | 1.86 | 2.19 | 1.32 | 1.3
45 | AUUCACCUAGAUCAUCUGGUG [Fam2.2 aminoacylation ribozyme variant] | 2.39 | 1.71 | 2.21 | 14.8 | 2.82 | 1.73
46 | AUUGACCUAGGUCAUCGGGGG [Fam2.2 aminoacylation ribozyme variant] | 3.21 | 3.41 | 3.93 | 12.8 | 4.57 | 3.04
47 | AUUAUCCUGGUCAGCGAGUGA [Fam2.1 aminoacylation ribozyme variant] | 5.26 | 3.04 | 6.53 | 17.7 | 5.28 | 3.13
48 | AAGUAUGCUAAUAGUCGCAAC [Fam3.1 aminoacylation ribozyme variant] | 1.2 | 1.22 | 1.23 | 2.19 | 1.28 | 0.942
49 | GUUACCCUGGUCAUCGAGUGA [Fam2.1 aminoacylation ribozyme variant] | 99 | 35.2 | 101 | 747 | 100 | 38.3
50 | AAUCACCUAGGUCCUCGGGUG [Fam2.2 aminoacylation ribozyme variant] | 3.73 | 3.74 | 5.34 | 19.7 | 5.07 | 3.29
51 | GUUCACCUAAGUCAUCGGGUG [Fam2.2 aminoacylation ribozyme variant] | 7.53 | 5.38 | 7.87 | 51.4 | 9.78 | 5.4

From the supplement of paper PMC9233669
